One block for each binder: values may come before it.
What was measured:
[1] = target: T1, CD79b on target B cell lines (Ramos (CD79b+) cells; Daudi cells) (UniProt P40259 29-229, limits assumed); assay: flow cytometry on Ramos cells, anti-human IgG Fc PE
T1 construct: whole, on cells; On cells CD79b stands in the B cell receptor complex with CD79a; also called Ramos (CD79+) cells; CD79b expression cells
T1 sequence (looked up): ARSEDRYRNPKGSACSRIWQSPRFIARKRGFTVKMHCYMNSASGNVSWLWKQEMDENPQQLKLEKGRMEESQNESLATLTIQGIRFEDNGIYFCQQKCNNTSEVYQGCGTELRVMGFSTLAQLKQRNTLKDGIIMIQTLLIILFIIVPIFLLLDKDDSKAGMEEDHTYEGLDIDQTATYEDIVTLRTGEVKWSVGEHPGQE

[2] = target: T2, human NKp46 expressed on cells (primary human NK cells; CHOK1-hNKp46 cells) (human, UniProt O76036 22-304); assay: flow cytometry on CHOK1-hNKp46 cells, anti-human IgG Fc PE
T2 construct: whole, on cells; also called cell surface expressed NKp46; NCR1

[3] = target: T1, CD79b on target B cell lines (Ramos …); assay: flow cytometry on Ramos cells, anti-human IgG PE
[4] = target: T2, human NKp46 expressed on cells (primary …); assay: flow cytometry on purified CD56+ human NK cells, anti-human IgG PE

T2 sequence (O76036 22-304): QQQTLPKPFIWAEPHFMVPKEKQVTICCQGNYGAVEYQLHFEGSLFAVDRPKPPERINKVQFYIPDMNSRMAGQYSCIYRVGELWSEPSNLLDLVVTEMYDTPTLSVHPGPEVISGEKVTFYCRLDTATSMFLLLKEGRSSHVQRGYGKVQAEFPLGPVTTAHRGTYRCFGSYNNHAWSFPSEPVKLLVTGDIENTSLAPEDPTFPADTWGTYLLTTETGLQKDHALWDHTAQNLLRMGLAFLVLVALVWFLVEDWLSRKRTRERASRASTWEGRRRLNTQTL

binding result [1]: binds | binding result [2]: binds
B1: h44G2/h6-1 (HC) Fc-optimized (bispecific antibody, human IgG1, kappa)
heavy: EQQLVETGGGLIQPGGSLRLSCAASGFTINIDYWISWVRQAPGKGLEWIGIIDPGDGTTYFAIWVSGRFTISFDNSKNTVYLQMNSLRAEDTAVYFCVREFSASAYQYDLWGPGTLVTVSSASTKGPSVFPLAPSSKSTSGGTAALGCLVKDYFPEPVTVSWNSGALTSGVHTFPAVLQSSGLYSLSSVVTVPSSSLGTQTYICNVNHKPSNTKVDKKVEPKSCDKTHTCPPCPAPELLAGPSVFLFPPKPKDTLMISRTPEVTCVVVDVSHEDPEVKFNWYVDGVEVHNAKTKPREEQYNSTYRVVSVLTVLHQDWLNGKEYKCKVSNKALPLPEEKTISKAKGQPREPQVYTLPPSRDELTKNQVSLTCLVKGFYPSDIAVEWESNGQPENNYKTTPPVLDSDGSFFLYSKLTVDKSRWQQGNVFSCSVMHEALHNHYTQKSLSLSPGGGGGSGGGGSGGGGSDVQMTQSPSTLSASVGDRVTITCQASENIYSSLAWYQQKPGKPPKLLMYDVSDLASGVPSRFSGSGSGTEFTLTISSLQPDDFATYFCLGGYPSNNYRMAFGCGTKVEIKGGGGSGGGGSGGGGSGGGGSEQQLLESGGGLVQPGGSLRLSCAASGFSFSSSAWIVWVRQAPGKCLEWIGVINTVSVNAYYASWAKGRFTISKDSSKNTVYLQMNSLRAEDTAVYFCARNPYNSLRLWGPGTLVTVSS
light: ELVMTQSPATLSVSPGERATLSCRASEDIENYLAWYQQKPGQPPRLLIYRASTLSSGVPARFSGSGSGTEFTLTISSLQSEDFAVYYCQQGYRNSNVDNPFGGGTKVEIKRTVAAPSVFIFPPSDEQLKSGTASVVCLLNNFYPREAKVQWKVDNALQSGNSQESVTEQDSKDSTYSLSSTLTLSKADYEKHKVYACEVTHQGLSSPVTKSFNRGEC
notes: HC format, optimized Fc; also called humanized CD79b/NKp46 bispecific antibody; humanized NK cell engager

binding result [1]: binds | binding result [2]: binds
B2: ch44G2/ch6-1 (HC) Fc-optimized (bispecific antibody, human IgG1, kappa)
heavy: QSVRETGGGLVQPGGSLKLSCKASGFTINIDYWISWVRQAPGKGLEWIGIIDPGDGTTYFAIWVNGRFTISFDNTQNTVDLQMNSLTAADTATYFCVREFSASAYQYDLWGPGTLVTVSSASTKGPSVFPLAPSSKSTSGGTAALGCLVKDYFPEPVTVSWNSGALTSGVHTFPAVLQSSGLYSLSSVVTVPSSSLGTQTYICNVNHKPSNTKVDKRVEPKSCDKTHTCPPCPAPELLAGPSVFLFPPKPKDTLMISRTPEVTCVVVDVSHEDPEVKFNWYVDGVEVHNAKTKPREEQYNSTYRVVSVLTVLHQDWLNGKEYKCKVSNKALPLPEEKTISKAKGQPREPQVYTLPPSRDELTKNQVSLTCLVKGFYPSDIAVEWESNGQPENNYKTTPPVLDSDGSFFLYSKLTVDKSRWQQGNVFSCSVMHEALHNHYTQKSLSLSPGKGGGGSGGGGSGGGGSADVVMTQTPASVSEPVGGTITINCQASENIYSSLAWYQQKPGQPPKLLMYDVSDLASGVPSRFSGSGSGTEFALTISDVQPDDAATYFCLGGYPSNNYRMAFGGGTEVVVKGGGGSGGGGSGGGGSGGGGSQSLEESGGGLVQPEGSLTLTCTASGFSFSSSAWICWVRQAPGKGLEWIGCINTVSVNAYYASWAKGRFTISKTSSTTVTLQVTSLTAADTATHFCARNPYNSLRLWGPGTLVTVSS
light: DLVMTQTPSSVSAAVGGTVSINCRASEDIENYLAWYQQKPGQPPKLLIYRASTLSSGVSSRFSGSGSGTEFTLTISGVQPDDAATYYCQQGYRNSNVDNPFGGGTEMVVKRTVAAPSVFIFPPSDEQLKSGTASVVCLLNNFYPREAKVQWKVDNALQSGNSQESVTEQDSKDSTYSLSSTLTLSKADYEKHKVYACEVTHQGLSSPVTKSFNRGEC
notes: HC format: the NKp46 scFv stands at the C terminus of the heavy chain Fc, with optimized Fc; also called chimeric CD79b/NKp46 bispecific antibody; NK cell engager

binding result [1]: binds | binding result [2]: binds
B3: ch44G2/ch6-1 (LC) Fc-optimized (bispecific antibody, human IgG1, kappa)
heavy: QSVRETGGGLVQPGGSLKLSCKASGFTINIDYWISWVRQAPGKGLEWIGIIDPGDGTTYFAIWVNGRFTISFDNTQNTVDLQMNSLTAADTATYFCVREFSASAYQYDLWGPGTLVTVSSASTKGPSVFPLAPSSKSTSGGTAALGCLVKDYFPEPVTVSWNSGALTSGVHTFPAVLQSSGLYSLSSVVTVPSSSLGTQTYICNVNHKPSNTKVDKRVEPKSCDKTHTCPPCPAPELLAGPSVFLFPPKPKDTLMISRTPEVTCVVVDVSHEDPEVKFNWYVDGVEVHNAKTKPREEQYNSTYRVVSVLTVLHQDWLNGKEYKCKVSNKALPLPEEKTISKAKGQPREPQVYTLPPSRDELTKNQVSLTCLVKGFYPSDIAVEWESNGQPENNYKTTPPVLDSDGSFFLYSKLTVDKSRWQQGNVFSCSVMHEALHNHYTQKSLSLSPGK
light: DLVMTQTPSSVSAAVGGTVSINCRASEDIENYLAWYQQKPGQPPKLLIYRASTLSSGVSSRFSGSGSGTEFTLTISGVQPDDAATYYCQQGYRNSNVDNPFGGGTEMVVKRTVAAPSVFIFPPSDEQLKSGTASVVCLLNNFYPREAKVQWKVDNALQSGNSQESVTEQDSKDSTYSLSSTLTLSKADYEKHKVYACEVTHQGLSSPVTKSFNRGECGGGGSGGGGSGGGGSGGGGSADVVMTQTPASVSEPVGGTITINCQASENIYSSLAWYQQKPGQPPKLLMYDVSDLASGVPSRFSGSGSGTEFALTISDVQPDDAATYFCLGGYPSNNYRMAFGGGTEVVVKGGGGSGGGGSGGGGSGGGGSQSLEESGGGLVQPEGSLTLTCTASGFSFSSSAWICWVRQAPGKGLEWIGCINTVSVNAYYASWAKGRFTISKTSSTTVTLQVTSLTAADTATHFCARNPYNSLRLWGPGTLVTVSS
notes: LC format: the NKp46 scFv stands at the C terminus of the anti-CD79b light chain, with optimized Fc (G236A, A330L, I332E, EU numbering); also called chimeric CD79b/NKp46 bispecific antibody; NK cell engager

binding result [1]: binds | binding result [2]: binds
B4: h44G2/h6-1 (LC) Fc-optimized (bispecific antibody, human IgG1, kappa)
heavy: EQQLVETGGGLIQPGGSLRLSCAASGFTINIDYWISWVRQAPGKGLEWIGIIDPGDGTTYFAIWVSGRFTISFDNSKNTVYLQMNSLRAEDTAVYFCVREFSASAYQYDLWGPGTLVTVSSASTKGPSVFPLAPSSKSTSGGTAALGCLVKDYFPEPVTVSWNSGALTSGVHTFPAVLQSSGLYSLSSVVTVPSSSLGTQTYICNVNHKPSNTKVDKKVEPKSCDKTHTCPPCPAPELLAGPSVFLFPPKPKDTLMISRTPEVTCVVVDVSHEDPEVKFNWYVDGVEVHNAKTKPREEQYNSTYRVVSVLTVLHQDWLNGKEYKCKVSNKALPLPEEKTISKAKGQPREPQVYTLPPSRDELTKNQVSLTCLVKGFYPSDIAVEWESNGQPENNYKTTPPVLDSDGSFFLYSKLTVDKSRWQQGNVFSCSVMHEALHNHYTQKSLSLSPGK
light: ELVMTQSPATLSVSPGERATLSCRASEDIENYLAWYQQKPGQPPRLLIYRASTLSSGVPARFSGSGSGTEFTLTISSLQSEDFAVYYCQQGYRNSNVDNPFGGGTKVEIKRTVAAPSVFIFPPSDEQLKSGTASVVCLLNNFYPREAKVQWKVDNALQSGNSQESVTEQDSKDSTYSLSSTLTLSKADYEKHKVYACEVTHQGLSSPVTKSFNRGECGGGGSGGGGSGGGGSDVQMTQSPSTLSASVGDRVTITCQASENIYSSLAWYQQKPGKPPKLLMYDVSDLASGVPSRFSGSGSGTEFTLTISSLQPDDFATYFCLGGYPSNNYRMAFGCGTKVEIKGGGGSGGGGSGGGGSGGGGSEQQLLESGGGLVQPGGSLRLSCAASGFSFSSSAWIVWVRQAPGKCLEWIGVINTVSVNAYYASWAKGRFTISKDSSKNTVYLQMNSLRAEDTAVYFCARNPYNSLRLWGPGTLVTVSS
notes: LC format, optimized Fc; also called humanized CD79b/NKp46 bispecific antibody; humanized NK cell engager

binding result [3]: binds | binding result [4]: binds
B5: ch44G2/ch3-7 Fc-silenced (bispecific antibody, human IgG1, kappa, L234A L235A)
heavy: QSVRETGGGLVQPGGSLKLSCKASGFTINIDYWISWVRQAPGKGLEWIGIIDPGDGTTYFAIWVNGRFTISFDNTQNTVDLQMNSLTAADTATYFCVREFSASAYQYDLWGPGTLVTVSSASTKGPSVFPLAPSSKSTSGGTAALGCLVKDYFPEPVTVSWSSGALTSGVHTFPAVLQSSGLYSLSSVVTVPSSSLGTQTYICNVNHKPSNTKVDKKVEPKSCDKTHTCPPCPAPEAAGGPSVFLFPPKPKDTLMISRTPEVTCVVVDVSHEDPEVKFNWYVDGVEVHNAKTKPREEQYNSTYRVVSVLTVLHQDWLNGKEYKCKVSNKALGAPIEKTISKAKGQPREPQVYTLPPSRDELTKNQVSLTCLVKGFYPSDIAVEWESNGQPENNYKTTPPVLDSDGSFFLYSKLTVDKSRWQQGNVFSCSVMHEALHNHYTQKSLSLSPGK
light: DLVMTQTPSSVSAAVGGTVSINCRASEDIENYLAWYQQKPGQPPKLLIYRASTLSSGVSSRFSGSGSGTEFTLTISGVQPDDAATYYCQQGYRNSNVDNPFGGGTEMVVKRTVAAPSVFIFPPSDEQLKSGTASVVCLLNNFYPREAKVQWKVDNALQSGNSQESVTEQDSKDSTYSLSSTLTLSKADYEKHKVYACEVTHQGLSSPVTKSFNRGECGGGGSGGGGSGGGGSGGGGSAFELTQTPSSVEAAVGGTVTINCQASQDIYIYLAWYQQKPGQPPKLLIYSASTLASGVSSRFTGSRSGTQFTLTISDLEPADAATYYCQSYDGTSNTGFGGGTEVVVRGGGGSGGGGSGGGGSGGGGSQSLEESGGRLVTPGTPLTLTCTVSGFSPSSYYMSWVRQAPGKGLEYIGIIFSGGSTWYASWAKGRVTISRTSTTVDLKMTSLTTEDTATYFCARGDAVGSGYWGLWGPGTLVTVSS
notes: LC format: the NKp46 scFv (VL-GS-VH) is joined to the C terminus of the anti-CD79b light chain, with LALAPG silenced Fc; also called CD79b/NKp46 bispecific antibody; 44G2/3-7

— patent EP4713370A2 (dated 2026)
